In patent publication US20240002542A1 (SYNTHEKINE, published 2024):

B1: 17-DR594 (SEQ ID NO. 235), anti-hGP130 Mono-Fc VHH (Fc fusion)
chain: QVQLQESGGGSVQAGGSLRLSCVASASTYCTYDMHWYRQAPGKGREFVSAIDSDGTTRYADSVKGRFTISQGTAKNTVYLQMNSLQPEDTAMYYCKTVCVVGSRWSDYWGQGTQVTVSS
notes: Mono-Fc VHH ligand captured on a Protein A chip; not shown: mono-Fc part
B2: 14-DR591 (SEQ ID NO. 232), anti-hGP130 Mono-Fc VHH (Fc fusion)
chain: QVQLQESGGGSVQAGGSLRLSCTASGAIASGYIDSRWCMAWFRQAPGKEREGVAAIWPGGGLTVYADSVKGRFTISRDHAKNTLYLQMNNLKPEDTAMYYCAAGSPRMCPSLEFGFDYWGQGTQVTVSS
notes: Tested as Mono-Fc VHH ligand captured on a Protein A chip; not shown: mono-Fc part
B3: 19-DR596 (SEQ ID NO. 237), anti-hGP130 Mono-Fc VHH (Fc fusion)
chain: QVQLQESGGGLVQPGGSLRLSCTASGLTFDDSVMGWFRQAPGKGREAVSCISSSGANAFYADSVKGRFTISRDNAKNTLYLQMNSLKPEDTATYYCKRGHACAGYYPIPYDDYWGQGTQVTVSS
notes: as for B1
B4: 16-DR593 (SEQ ID NO. 234), anti-hGP130 Mono-Fc VHH (Fc fusion)
chain: QVQLQESGGGSVQAGGSLRLSCAASGYPYSNGYMGWFRQAPGKEREGVATIYTGDGRTYYADSVKGRFTISRDNAKNTVDLQMSSLKPEDTAMYYCAARAAPLYSSGSPLTRARYNVWGQGTQVTVSS
notes: as for B1
B5: 15-DR592 (SEQ ID NO. 233), anti-hGP130 Mono-Fc VHH (Fc fusion)
chain: QVQLQESGGGSVQAGGSLRLSCTAPGFTSNSCGMDWYRQAPGKEREFVSSISTDGTTGYADSVKGRFTISKDKAKDTVYLQMNSLKPEDTGMYSCKTKDGTIATMELCDFGYWGQGTQVTVSS
notes: as for B1
B6: 18-DR595 (SEQ ID NO. 236), anti-hGP130 Mono-Fc VHH (Fc fusion)
chain: QVQLQESGGGSVQAGGSLTLSCAASEYAYSTCNMGWYRQAPGKERELVSAFISDGSTYYADSVKGRFTITRDNAKNTVYLQMNSLKPEDTAIYYCSANCYRRLRNYWGQGTQVTVSS
notes: as for B1
B7: hIL27Ra_VHH1 (VHH)
VHH: QVQLQESGGGLVQPGGSLRLSCAASGFTFSSYPMSWVRQAPGKGLEWISTISAGGDTTLYADSVKGRFTSSRDNAKNTLYLQLNSLKTEDAAIYYCAKRIDCNSGYCYRRNYWGQGTQVTVSS
B8: hIL27Ra_VHH9 (VHH)
VHH: QVQLQESGGGSVQSGGSLRLSCAASGFTYSTSNSWMAWFRQAPGKEREGVAAIYTVGGSIFYADSVRGRFTISQDATKNMFYLQMNTLKPEDTAMYYCAAASGRLRGKWFWPYEYNYWGQGTQVTVSS
B9: hIL27Ra_VHH21 (VHH)
VHH: QVQLQESGGGLVQPGGSLRLSCAASGFTFSLSSMSWVRQAPGKGLEWVSAISSGGASTYYTDSVKGRFTISRDNAKNMLYLQLNSLKTEDTAMYYCAKGGSGYGDASRMTSPGSQGTQVTVSS
B10: hIL27Ra_VHH19 (VHH)
VHH: QVQLQESGGGSVQAGGSLRLSCRASGSTYSNYCLGWFRQITGKEREGVAVINWVGGMLYFADSVKGRFTVSQDQAKNTVYLQMNSLKPEDTAMYYCAAESVSSFSCGGWLTRPDRVPYWGQGTQVTVSS
B11: hIL27Ra_VHH15 (VHH)
VHH: QVQLQESGGGSVQAGGSLRLSCVASGYVSCDYFLPSWYRQAPGKEREFVSIIDGTGSTSYAASVKGRFTASQDKGKNIAYLQMNTLKPEDTAMYYCKASCVRGRAISEYWGQGTQVTVSS
B12: 20-DR597 (SEQ ID NO. 245), anti-hIL27Ra Mono-Fc VHH (Fc fusion)
chain: B7 VHH
notes: as for B1
B13: 23-DR600 (SEQ ID NO. 248), anti-hIL27Ra Mono-Fc VHH (Fc fusion)
chain: B8 VHH
notes: as for B1
B14: 26-DR603 (SEQ ID NO. 251), anti-hIL27Ra Mono-Fc VHH (Fc fusion)
chain: B9 VHH
notes: as for B1
B15: 25-DR602 (SEQ ID NO. 250), anti-hIL27Ra Mono-Fc VHH (Fc fusion)
chain: B10 VHH
notes: as for B1
B16: 24-DR601 (SEQ ID NO. 249), anti-hIL27Ra Mono-Fc VHH (Fc fusion)
chain: B11 VHH
notes: as for B1

Each binder was assayed against T1, hGP130-his (Sino Biological, Catalog #10974) (human, UniProt P40189 23-619) (assay: SPR Biacore T200, hgp130 arm).
T1 construct: Bought his-tagged cytokine receptor used as SPR analyte; also called human gp130 receptor subunit; IL6 receptor beta subunit; not shown: his tag
T1 sequence: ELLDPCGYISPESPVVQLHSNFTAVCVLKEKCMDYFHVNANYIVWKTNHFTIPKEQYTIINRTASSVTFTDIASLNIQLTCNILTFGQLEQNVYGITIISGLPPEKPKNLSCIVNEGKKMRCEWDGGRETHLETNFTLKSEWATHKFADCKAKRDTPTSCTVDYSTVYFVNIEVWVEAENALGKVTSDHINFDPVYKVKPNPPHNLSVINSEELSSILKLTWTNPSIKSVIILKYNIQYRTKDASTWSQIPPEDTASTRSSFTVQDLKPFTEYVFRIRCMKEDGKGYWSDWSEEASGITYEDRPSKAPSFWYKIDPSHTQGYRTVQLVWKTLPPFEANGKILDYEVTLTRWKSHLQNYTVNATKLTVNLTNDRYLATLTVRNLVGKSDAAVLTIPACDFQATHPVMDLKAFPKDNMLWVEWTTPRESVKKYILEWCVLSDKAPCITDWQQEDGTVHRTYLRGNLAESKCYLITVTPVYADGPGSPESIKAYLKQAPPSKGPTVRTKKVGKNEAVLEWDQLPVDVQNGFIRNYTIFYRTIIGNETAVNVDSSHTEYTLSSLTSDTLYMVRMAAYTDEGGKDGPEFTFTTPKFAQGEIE
Experimental: (§1) All experiments were conducted in 10 mM Hepes, 150 mMv NaCl, 0.05% (v/v) Polysorbate 20 (PS20) and 3 mMv EDTA (HBS-EP+ buffer) on a Biacore® T200 instrument equipped with a Protein A chip (Cytiva). Mono-Fc VHH ligands were flowed at 5 μl/min for variable time ranging from 18 to 300 seconds, reaching the capture loads listed in the tables below.
(§2) Following ligand capture, injections of a 2-fold dilution series of his-tagged cytokine receptors typically comprising at least five concentrations between 1 μM and 1 nM were performed in either high performance or single cycle kinetics mode. Surface regeneration was achieved by flowing 10 mMv glycine-HCl, pH 1.5 (60 seconds, 50 μL/min). Buffer-subtracted sensograms were processed with Biacore® T200 Evaluation Software and globally fit with a 1:1 Langmuir binding model (bulk shift set to zero) to extract kinetics and affinity constants (ka, kd, KD). RMAX<100 RU indicates surface density compatible with kinetics analysis. Calculated Rmax were generated using the equation Rmax=Load (RU)×valency of ligand×(Molecular weight of analyte/Molecular weight of ligand. Surface activity was defined as the ratio experimental/calculated Rmax. See tables below for sample information and experimental results.

| Binder | Kd [nM] | koff [s⁻¹] | kon [M⁻¹ s⁻¹] |
| --- | --- | --- | --- |
| B1 | 58 | 0.0095 | 160000 |
| B2 | 33 | 0.0019 | 59000 |
| B3 | 44 | 0.0082 | 190000 |
| B4 | 82 | 0.021 | 250000 |
| B5 | 38 | 0.0059 | 160000 |
| B6 | 41 | 0.0073 | 180000 |

Each binder was assayed against T2, hIL27Ra-his (Origene, Catalog #TP307012) (human, UniProt Q6UWB1 33-516, limits assumed) (assay: SPR Biacore T200, hIL27Ra arm).
T2 construct: Bought his-tagged cytokine receptor used as SPR analyte; also called human IL27 receptor subunit alpha; not shown: his tag
T2 sequence: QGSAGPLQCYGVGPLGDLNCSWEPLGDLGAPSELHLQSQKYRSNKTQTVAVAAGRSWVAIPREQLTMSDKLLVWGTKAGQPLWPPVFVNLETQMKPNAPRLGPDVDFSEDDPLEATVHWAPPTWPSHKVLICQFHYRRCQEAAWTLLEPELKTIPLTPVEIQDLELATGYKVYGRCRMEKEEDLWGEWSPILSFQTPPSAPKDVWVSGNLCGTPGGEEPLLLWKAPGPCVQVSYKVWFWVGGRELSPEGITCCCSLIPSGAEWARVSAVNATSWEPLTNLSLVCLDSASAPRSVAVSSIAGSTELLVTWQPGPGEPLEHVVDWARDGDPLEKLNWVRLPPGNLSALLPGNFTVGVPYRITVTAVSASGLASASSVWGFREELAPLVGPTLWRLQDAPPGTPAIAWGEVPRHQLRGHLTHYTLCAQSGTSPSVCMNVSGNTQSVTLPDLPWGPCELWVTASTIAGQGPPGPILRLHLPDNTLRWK

| Binder | Kd [nM] | koff [s⁻¹] | kon [M⁻¹ s⁻¹] |
| --- | --- | --- | --- |
| B7 | 19 | 0.00057 | 30000 |
| B8 | 4.5 | 0.00041 | 91000 |
| B9 | 6.1 | 0.00077 | 130000 |
| B10 | 5.2 | 0.00076 | 150000 |
| B11 | 17 | 0.001 | 59000 |

These binders were tested against T1, hGP130-his (Sino Biological, Catalog …) (assay: SPR Biacore T200; ratio experimental/calculated Rmax).
Experimental: as §1, §2

| Binder | Surface Activity [%] |
| --- | --- |
| B1 | 21 |
| B2 | 21 |
| B3 | 28 |
| B4 | 20 |
| B5 | 33 |
| B6 | 33 |

These binders were tested against T2, hIL27Ra-his (Origene, Catalog #TP307012) in the same assay as above.
Experimental: as §1, §2

| Binder | Surface Activity [%] |
| --- | --- |
| B12 | 4 |
| B13 | 13 |
| B14 | 18 |
| B15 | 20 |
| B16 | 12 |

The binders below were run against T1, hGP130-his (Sino Biological, Catalog …) (assay: SPR Biacore T200; mono-Fc VHH on Protein A chip, hGP130-his analyte).
Experimental: as §1, §2

| Binder | Kd [nM] | koff [s⁻¹] | kon [M⁻¹ s⁻¹] |
| --- | --- | --- | --- |
| B1 | 58 | 0.0095 | 160000 |
| B2 | 33 | 0.0019 | 59000 |
| B3 | 44 | 0.0082 | 190000 |
| B4 | 82 | 0.021 | 250000 |
| B5 | 38 | 0.0059 | 160000 |
| B6 | 41 | 0.0073 | 180000 |

The binders below were run against T2, hIL27Ra-his (Origene, Catalog #TP307012) (assay: SPR Biacore T200; mono-Fc VHH on Protein A chip, hIL27Ra-his analyte).
Experimental: as §1, §2

| Binder | Kd [nM] | koff [s⁻¹] | kon [M⁻¹ s⁻¹] |
| --- | --- | --- | --- |
| B12 | 19 | 0.00057 | 30000 |
| B13 | 17 | 0.001 | 59000 |
| B14 | 6.1 | 0.00077 | 130000 |
| B15 | 5.2 | 0.00076 | 150000 |
| B16 | 4.5 | 0.00041 | 91000 |
